T1: anti-GCN4 (52SR4 scFv) sCAR with IgG4m hinge
T1 construct: disulfide dimer by western blot; also called short-dimeric sCAR; IgG4m sCAR
T1 chain: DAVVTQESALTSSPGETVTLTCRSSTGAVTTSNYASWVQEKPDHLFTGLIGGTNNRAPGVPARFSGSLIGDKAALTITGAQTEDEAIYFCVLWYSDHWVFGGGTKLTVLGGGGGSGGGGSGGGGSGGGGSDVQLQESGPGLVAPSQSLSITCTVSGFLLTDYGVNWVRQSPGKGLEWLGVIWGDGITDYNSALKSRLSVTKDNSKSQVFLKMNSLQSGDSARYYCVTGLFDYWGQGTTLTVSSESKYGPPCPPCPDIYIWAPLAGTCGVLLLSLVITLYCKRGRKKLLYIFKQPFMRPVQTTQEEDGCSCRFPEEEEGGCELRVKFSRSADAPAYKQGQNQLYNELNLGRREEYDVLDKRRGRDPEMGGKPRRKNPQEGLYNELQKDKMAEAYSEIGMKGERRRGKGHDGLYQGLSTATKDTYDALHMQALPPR

T2: CLL1 (UniProt Q5QGZ9 1-265, limits assumed)
T2 sequence (looked up): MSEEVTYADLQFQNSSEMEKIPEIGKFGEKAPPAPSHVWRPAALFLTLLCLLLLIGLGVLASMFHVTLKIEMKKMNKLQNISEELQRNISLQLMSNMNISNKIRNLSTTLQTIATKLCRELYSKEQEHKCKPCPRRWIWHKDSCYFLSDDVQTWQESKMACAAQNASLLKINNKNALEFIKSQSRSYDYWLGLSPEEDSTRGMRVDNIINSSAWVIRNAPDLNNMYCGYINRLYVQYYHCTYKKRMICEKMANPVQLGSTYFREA

B1: anti-CD19 (FMC63) Fab CTBV switch (Fab)
light: DIQMTQTTSSLSASLGDRVTISCRASQDISKYLNWYQQKPDGTVKLLIYHTSRLHSGVPSRFSGSGSGTDYSLTISNLEQEDIATYFCQQGNTLPYTFGGGTKLEIKRTVAAPSVFIFPPSDEQLKSGTASVVCLLNNFYPREAKVQWKVDNALQSGNSQESVTEQDSKDSTYSLSSTLTLSKADYEKHKVYACEVTHQGLSSPVTKSFNRGECGGGGSNYHLENEVARLKKL
heavy: EVKLQESGPGLVAPSQSLSVTCTVSGVSLPDYGVSWIRQPPRKGLEWLGVIWGSETTYYNSALKSRLTIIKDNSKSQVFLKMNSLQTDDTAIYYCAKHYYYGGSYAMDYWGQGTSVTVSSASTKGPSVFPLAPSSKSTSGGTAALGCLVKDYFPEPVTVSWNSGALTSGVHTFPAVLQSSGLYSLSSVVTVPSSSLGTQTYICNVNHKPSNTKVDKKVEPKSCGGGGSNYHLENEVARLKKL
notes: the text prints 97 & 34; also called BV CT
B2: anti-CD19 (FMC63) Fab LCC1 switch (Fab)
light: DIQMTQTTSSLSASLGDRVTISCRASQDISKYLNWYQQKPDGTVKLLIYHTSRLHSGVPSRFSGSGSGTDYSLTISNLEQEDIATYFCQQGNTLPYTFGGGTKLEIKRTVAAPSVFIFPPSDEQLKSGTASVVCLLNNFYPREAKVQWKVDNALQSGNSQESVTEQDSGGGGSNYHLENEVARLKKLGGGGSDSTYSLSSTLTLSKADYEKHKVYACEVTHQGLSSPVTKSFNRGEC
heavy: EVKLQESGPGLVAPSQSLSVTCTVSGVSLPDYGVSWIRQPPRKGLEWLGVIWGSETTYYNSALKSRLTIIKDNSKSQVFLKMNSLQTDDTAIYYCAKHYYYGGSYAMDYWGQGTSVTVSSASTKGPSVFPLAPSSKSTSGGTAALGCLVKDYFPEPVTVSWNSGALTSGVHTFPAVLQSSGLYSLSSVVTVPSSSLGTQTYICNVNHKPSNTKVDKKVEPKSC
notes: also called anti-CD19 Fab CL1-GCN4
B3: anti-CD19 (FMC63) Fab LCCT switch (Fab)
light: B1 light
heavy: B2 heavy
B4: anti-CD19 (FMC63) Fab C1BV switch (Fab)
light: B2 light
heavy: EVKLQESGPGLVAPSQSLSVTCTVSGVSLPDYGVSWIRQPPRKGLEWLGVIWGSETTYYNSALKSRLTIIKDNSKSQVFLKMNSLQTDDTAIYYCAKHYYYGGSYAMDYWGQGTSVTVSSASTKGPSVFPLAPSSNYHLENEVARLKKLSGGTAALGCLVKDYFPEPVTVSWNSGALTSGVHTFPAVLQSSGLYSLSSVVTVPSSSLGTQTYICNVNHKPSNTKVDKKVEPKSC
notes: also called BV C1
B5: anti-CD19 (FMC63) Fab HCCT switch (Fab, V domains shown)
VH: EVKLQESGPGLVAPSQSLSVTCTVSGVSLPDYGVSWIRQPPRKGLEWLGVIWGSETTYYNSALKSRLTIIKDNSKSQVFLKMNSLQTDDTAIYYCAKHYYYGGSYAMDYWGQGTSVTVSS
VL: DIQMTQTTSSLSASLGDRVTISCRASQDISKYLNWYQQKPDGTVKLLIYHTSRLHSGVPSRFSGSGSGTDYSLTISNLEQEDIATYFCQQGNTLPYTFGGGTKLEIKR
notes: also called C-terminal switch
B6: anti-CD19 (FMC63) Fab NTBV switch (Fab, V domains shown)
VH: B5 VH
VL: B5 VL
notes: also called BV NT
B7: anti-CD19 (FMC63) Fab with no grafted peptide (Fab, V domains shown)
VH: B5 VH
VL: B5 VL
notes: also called WT; wild type anti-CD19 Fab
B8: anti-CLL1 (1075.7) Fab switch D (light chain C terminus) (Fab)
light: ENVLTQSPAIMSASPGEKVTMTCRASSNVISSYVHWYQQRSGASPKLWIYSTSNLASGVPARFSGSGSGTSYSLTISSVEAEDAATYYCQQYSGYPLTFGAGTKLELKRAAAAPSVFIFPPSDEQLKSGTASVVCLLNNFYPREAKVQWKVDNALQSGNSQESVTEQDSKDSTYSLSSTLTLSKADYEKHKVYACEVTHQGLSSPVTKSFNRGECGGGGSNYHLENEVARLKKL
heavy: DIQLQESGPGLVKPSQSLSLTCSVTGYSITSAYYWNWIRQFPGNKLEWMGYISYDGRNNYNPSLKNRISITRDTSKNQFFLKLNSVTTEDTATYYCAKEGDYDVGNYYAMDYWGQGTSVTVSSARTKGPSVFPLAPSSKSTSGGTAALGCLVKDYFPEPVTVSWNSGALTSGVHTFPAVLQSSGLYSLSSVVTVPSSSLGTQTYICNVNHKPSNTKVDKKVEPKSC
B9: anti-CLL1 (1075.7) Fab bivalent switch C + D (Fab)
light: B8 light
heavy: DIQLQESGPGLVKPSQSLSLTCSVTGYSITSAYYWNWIRQFPGNKLEWMGYISYDGRNNYNPSLKNRISITRDTSKNQFFLKLNSVTTEDTATYYCAKEGDYDVGNYYAMDYWGQGTSVTVSSARTKGPSVFPLAPSSKSTSGGTAALGCLVKDYFPEPVTVSWNSGALTSGVHTFPAVLQSSGLYSLSSVVTVPSSSLGTQTYICNVNHKPSNTKVDKKVEPKSCGGGGSNYHLENEVARLKKL
B10: anti-CLL1 (1075.7) Fab switch C (heavy chain C terminus) (Fab, V domains shown)
VH: DIQLQESGPGLVKPSQSLSLTCSVTGYSITSAYYWNWIRQFPGNKLEWMGYISYDGRNNYNPSLKNRISITRDTSKNQFFLKLNSVTTEDTATYYCAKEGDYDVGNYYAMDYWGQGTSVTVSS
VL: ENVLTQSPAIMSASPGEKVTMTCRASSNVISSYVHWYQQRSGASPKLWIYSTSNLASGVPARFSGSGSGTSYSLTISSVEAEDAATYYCQQYSGYPLTFGAGTKLELKR
B11: anti-CLL1 (1075.7) Fab switch B (HCNT3) (Fab, V domains shown)
VH: B10 VH
VL: B10 VL
B12: anti-CLL1 (1075.7) Fab switch A (LCNT1) (Fab, V domains shown)
VH: B10 VH
VL: B10 VL
B13: anti-CLL1 (1075.7) Fab bivalent switch A + B (Fab, V domains shown)
VH: B10 VH
VL: B10 VL
B14: anti-CD22 (clone hLL2) Fab LCNT switch (Fab, V domains shown)
VH: QVQLVQSGAEVKKPGSSVKVSCKASGYTFTSYWLHWVRQAPGQGLEWIGYINPRNDYTEYNQNFKDKATITADESTNTAYMELSSLRSEDTAFYFCARRDITTFYWGQGTTVTVSS
VL: DIQLTQSPSSLSASVGDRVTMSCKSSQSVLYSANHKNYLAWYQQKPGKAPKLLIYWASTRESGVPSRFSGSGSGTDFTFTISSLQPEDIATYYCHQYLSSWTFGGGTKLEIKR

Target: T1, anti-GCN4 (52SR4 scFv) sCAR with IgG4m …
Assay: flow cytometry competition on CAR-T cells with the GCN4 CAR (SEQ ID NO. 74): 1 nM labelled GCN4 peptide (GCN4-AF488) as competitor, unlabelled peptide titrated, MFI of the labelled peptide read
Source text: Un-labelled peptide binding efficiency was indirectly shown by measuring the mean fluorescence intensity (MFI) staining with the labelled peptide.
Cells were then washed twice with cold PBS to remove the free labelled peptide before being analyzed using the BD Accuri flow cytometer.

**Q.** Does AAALENEVARLKKL [Peptide 4: AAALENEVARLKKL] bind?
**A.** Result: no binding (tested: 10^3 nM)

**Q.** Does NYHLENEVARLAAA [Peptide 8: NYHLENEVARLAAA] bind?
**A.** Result: binds

**Q.** Does NYHLENEVARLKAA [Peptide 7: NYHLENEVARLKAA] bind?
**A.** Result: binds

**Q.** Does AAAAENEVARLKKL [Peptide 5: AAAAENEVARLKKL] bind?
**A.** Result: no binding (tested: 10^3 nM)

**Q.** Does NYHLENEVARLKKA [Peptide 6: NYHLENEVARLKKA] bind?
**A.** Result: binds

Target: T3, anti-GCN4 (52SR4 scFv) sCAR with CD8 hinge
T3 construct: 273 is the protein without leader; also called sCAR (long); CD8 sCAR
Assay: flow cytometry on CD8 sCAR-T cells, switch 30 min at 4 C, detected with PE-conjugated goat anti-human kappa chain antibody, MFI
Source text: Cells were washed two times and analyzed using the Accuri flow cytometer (BD).

**Q.** Which EC50 does the source give for B1 here?
**A.** Its EC50 is 0.36 nM.

**Q.** With B2 as the binder, how does the EC50 read?
**A.** The EC50 was 4.6 nM.

**Q.** For B3, which EC50 is on record?
**A.** Its EC50 is 4.6 nM.

**Q.** B4 was tested. Which EC50 did it give?
**A.** The EC50 was 0.62 nM.

**Q.** How did the EC50 turn out when B5 was run?
**A.** Its EC50 is 11.7 nM.

**Q.** With B6 as the binder, how does the EC50 read?
**A.** Its EC50 is 0.69 nM.

**Q.** Does B7 bind?
**A.** Result: no binding (tested: 10^2 nM)

Target: T2, CLL1
Assay: cell-based or functional assay

**Q.** With B8 as the binder, how does the “EC50 of cytotoxicity, short hinge CAR” value read?
**A.** The value was 5.1 pM.

**Q.** For B9, which “EC50 of cytotoxicity, short hinge CAR” value is on record?
**A.** The value was 1.2 pM.

**Q.** For B10, which “EC50 of cytotoxicity, short hinge CAR” value is on record?
**A.** The value was 4.9 pM.

**Q.** With B11 as the binder, how does the “EC50 of cytotoxicity, short hinge CAR” value read?
**A.** Its value is 0.6 pM.

**Q.** For B12, which “EC50 of cytotoxicity, short hinge CAR” value is on record?
**A.** Its value is 1.5 pM.

**Q.** For B13, which “EC50 of cytotoxicity, short hinge CAR” value is on record?
**A.** Its value is 0.5 pM.

Target: T2, CLL1
Assay: cell-based or functional assay
Remark: another data set of the same source

**Q.** For B8, which “EC50 of cytotoxicity, long hinge CAR” value is on record?
**A.** Its value is 2.2 pM.

**Q.** How did the “EC50 of cytotoxicity, long hinge CAR” value turn out when B9 was run?
**A.** Its value is 3.1 pM.

**Q.** B10 was tested. Which “EC50 of cytotoxicity, long hinge CAR” value did it give?
**A.** Its value is 3.3 pM.

**Q.** With B11 as the binder, how does the “EC50 of cytotoxicity, long hinge CAR” value read?
**A.** Its value is 1.3 pM.

**Q.** Which “EC50 of cytotoxicity, long hinge CAR” value does the source give for B12 here?
**A.** The value was 4.1 pM.

**Q.** B13 was tested. Which “EC50 of cytotoxicity, long hinge CAR” value did it give?
**A.** The value was 0.6 pM.

Target: CD22 (UniProt P20273 20-847, limits assumed)
Assay: cell-based or functional assay

**Q.** For B14, which EC50 of cytotoxicity is on record?
**A.** The EC50 of cytotoxicity was 6.56 nM.

Source: patent publication US20190169289A1 (Scripps Research, published 2019)
